For 3 substances, stoichiometry N results are on record in article PMC10017365, “Functional characterization of Vip3Aa from Bacillus thuringiensis reveals the contributions of specific domains to its insecticidal activity” (The Journal of Biological Chemistry, 2023).

Test [1] addresses Vip3Aa DI-DIII (domain I to domain III truncation variant, untreated) (Bacillus thuringiensis 9816C). The experiment in a line: SEC; trypsin-treated proteins (1:50 wt:wt, 4 °C, 6 h) on Superdex 200 Increase 10/300 GL, peak fractions analysed by SDS-PAGE; untreated DI-DIV and DI-DIII as controls.
For test [2], the target named is Vip3Aa (full-length Vip3Aa protoxin, from Bacillus thuringiensis 9816C) (Bacillus thuringiensis 9816C). The experiment in a line: SEC + other: dynamic light scattering; purified proteins on a Superdex 200 Increase 10/300 GL column; DLS of the same proteins (Fig. S2A).
The target in test [3] is trypsin-activated Vip3Aa DI-DIII (DI-DIII^act) (Bacillus thuringiensis 9816C). In words: SEC; trypsin-treated proteins (1:50 wt:wt, 4 °C, 6 h) on Superdex 200 Increase 10/300 GL, peak fractions analysed by SDS-PAGE; untreated DI-DIV and DI-DIII as controls. A general note: In gel filtration, larger molecules generally elute earlier.

The term stoichiometry N denotes a count of units in the complex or per binding partner. In turn, “Vip3Aa DI-DIII (domain I to domain III truncation variant, untreated) (domain or fragment)” yielded a stoichiometry N in test [1] of 4.

Regarding “Vip3Aa (full-length Vip3Aa protoxin, from Bacillus thuringiensis 9816C) (natural protein)”, the stoichiometry N in test [2] amounted to 4.

“trypsin-activated Vip3Aa DI-DIII (DI-DIII^act) (complex)” had a stoichiometry N in test [3] of 4.
